From publication PMC10641266, “Sequence tolerance of immunoglobulin variable domain framework regions to noncanonical intradomain disulfide linkages” (The Journal of Biological Chemistry, 2023)

B1: A26.8 VHH, wild-type (canonical Cys23-Cys104 disulfide linkage only) (VHH)
VHH: QVKLEESGGGLVQAGGSLRLSCAASERTFSRYPVAWFRQAPGAEREFVAVISSTGTSTYYADSVKGRFTISRDNAKVTVYLQMNNLKREDTAVYFCAVNSQRTRLQDPNEYDYWGQGTQVTVSS
B2: A26.8 VHH with engineered Cys6-Cys119 disulfide linkage (VHH)
VHH: QVKLECSGGGLVQAGGSLRLSCAASERTFSRYPVAWFRQAPGAEREFVAVISSTGTSTYYADSVKGRFTISRDNAKVTVYLQMNNLKREDTAVYFCAVNSQRTRLQDPNEYDYWCQGTQVTVSS
B3: A26.8 VHH with engineered Cys22-Cys88 disulfide linkage (VHH)
VHH: QVKLEESGGGLVQAGGSLRLCCAASERTFSRYPVAWFRQAPGAEREFVAVISSTGTSTYYADSVKGRFTISRDNAKVTVCLQMNNLKREDTAVYFCAVNSQRTRLQDPNEYDYWGQGTQVTVSS
B4: A26.8 VHH with engineered Cys24-Cys86 disulfide linkage (VHH)
VHH: QVKLEESGGGLVQAGGSLRLSCCASERTFSRYPVAWFRQAPGAEREFVAVISSTGTSTYYADSVKGRFTISRDNAKVCVYLQMNNLKREDTAVYFCAVNSQRTRLQDPNEYDYWGQGTQVTVSS
B5: A26.8 VHH with engineered Cys4-Cys25 disulfide linkage (VHH)
VHH: QVKCEESGGGLVQAGGSLRLSCACSERTFSRYPVAWFRQAPGAEREFVAVISSTGTSTYYADSVKGRFTISRDNAKVTVYLQMNNLKREDTAVYFCAVNSQRTRLQDPNEYDYWGQGTQVTVSS
B6: A26.8 VHH with engineered Cys4-Cys118 pair (VHH)
VHH: QVKCEESGGGLVQAGGSLRLSCAASERTFSRYPVAWFRQAPGAEREFVAVISSTGTSTYYADSVKGRFTISRDNAKVTVYLQMNNLKREDTAVYFCAVNSQRTRLQDPNEYDYCGQGTQVTVSS

Target: Clostridioides difficile toxin A (Clostridioides difficile, strain not …, UniProt P16154)
Assay: SPR
Settings: both partners purified

Binder	Kd [nM]	koff [s⁻¹]	kon [M⁻¹ s⁻¹]
B1	16.5	0.0259	1.57e+06
B2	12.6	0.0691	5.5e+06
B3	18.7	0.028	1.5e+06
B4	43.6	0.0271	621000
B5	12.6	0.062	4.93e+06
B6	43.4		
